Measured values published in patent US20240352445A1 (ABWIZ BIO, published 2024).
Substitutions are numbered along the chain they refer to.

What was measured:
[1] = target: T1, SARS-CoV-2 spike protein trimer, Beta (B.1.351) variant (SARS-CoV-2, UniProt P0DTC2 16-1213); assay: BLI (Octet), biotinylated spike trimer on streptavidin sensor, IgG titrated
[2] = target: T2, SARS-CoV-2 spike protein trimer, Omicron (B.1.1.529) variant (SARS-CoV-2, UniProt P0DTC2 16-1213)
[3] = target: T1, SARS-CoV-2 spike protein trimer, Beta …; assay: ELISA, purified IgG
[4] = target: SARS-CoV-2 spike protein trimer, Kappa (B.1.617.1) variant (SARS-CoV-2, UniProt P0DTC2 16-1213); assay: ELISA, purified IgG
[5] = target: SARS-CoV-2 spike protein trimer, Epsilon (B.1.429) variant (SARS-CoV-2, UniProt P0DTC2 16-1213); assay: ELISA, purified IgG
[6] = target: SARS-CoV-2 spike protein trimer, Gamma (P.1) variant (SARS-CoV-2, UniProt P0DTC2 16-1213); assay: ELISA, purified IgG
[7] = target: SARS-CoV-2 spike protein trimer, Alpha (B.1.1.7) variant (SARS-CoV-2, UniProt P0DTC2 16-1213); assay: ELISA, purified IgG
[8] = target: SARS-CoV-2 spike protein trimer, Delta (B.1.617.2) variant (SARS-CoV-2, UniProt P0DTC2 16-1213); assay: BLI (Octet), biotinylated spike trimer on streptavidin sensor, IgG titrated
[9] = target: T2, SARS-CoV-2 spike protein trimer, …; assay: as above

B1: LxC1-G10 (antibody, V domains shown)
VH: EVQLVESGGGLVQPGGSLRLSCTVSGFSLSTYAMSWVRQAPGKGLEWIGVIASNADTYYASWAKGRFTISRDNSKNTLYLQMNSLRAEDTAVYYCARHPGSAGYGYAVYYAMDPWGQGTLVTVSS
VL: DIQMTQSPSSLSASVGDRVTITCQASERVFYGIDWYQQKPGKAPKLLIYGASALWHGVPSRFSGSGSGTDYTLTISSLQPEDFATYYCQQGYMVPIGFGGGTKVEIK
notes: also called light chain engineered candidate
fold increased affinity compared to hN2Y [1]: > 100 fold | Kd [2]: 51 pM | fold improvement in IC50 compared to hN2Y [2]: > 13 fold

B2: humanized antibody hN2Y (antibody, V domains shown)
VH: B1 VH
VL: DIQMTQSPSSLSASVGDRVTITCKASEDIRYGLNWYQQKPGKAPKLLIYGANTLEAGVPSRFSGSGSGTDYTLTISSLQPEDFATYYCQQGYSTPLTFGGGTKVEIK
IC50 [2]: 0.26 µg/mL

B3: SEQ ID NO 12 (antibody, V domains shown)
VH: B1 VH
VL: DIQMTQSPSSLSASVGDRVTITCQASQPIHYAINWYQQKPGKAPKLLIYGTSHRKMGVPSRFSGSGSGTDYTLTISSLQPEDFATYYCQQGYIVALKFGGGTKVEIK
notes: also called selected clone from LxC libraries; LxC clone
binding result [3]: binds | binding result [4]: binds | binding result [5]: binds | binding result [6]: binds | binding result [7]: binds

B4: SEQ ID NO 15 (antibody, V domains shown)
VH: B1 VH
VL: B3 VL with P28K, H53Y, R54L, K55G, M56G, Y71F, A95P, L96N, K97S
notes: As m4
binding result [3]: binds | binding result [4]: binds | binding result [5]: binds | binding result [6]: binds | binding result [7]: binds

B5: SEQ ID NO 18 (antibody, V domains shown)
VH: B1 VH
VL: B2 VL with A51G, N52S, T53Y, E55R, A56W, S93R, T94V, L96I, T97R
notes: As m4; also called selected clone from LxC libraries; LxC clone
binding result [3]: binds | binding result [4]: binds | binding result [5]: binds | binding result [6]: binds | binding result [7]: binds

B6: G10xA5 (antibody, V domains shown)
VH: B1 VH with F27Y, S28T, S30F, T31P, Y32P, A33P, M34V, S35T, A107Q, V108Y
VL: B1 VL
fold improved affinity compared to LxC1-G10 [8]: > 20 fold | fold improved affinity compared to LxC1-G10 [9]: 15 fold

B7: SEQ ID NO 17 (antibody, V domains shown)
VH: B1 VH
VL: DIQMTQSPSSLSASVGDRVTITCQASQPIYYGINWYQQKPGKAPKLLIYGHTYRAWGVPSRFSGSGSGTDFTLTISSLQPEDFATYYCQQGYRVGLGFGGGTKVEIK
notes: As m4
binding result [3]: binds | binding result [4]: binds | binding result [5]: binds | binding result [6]: binds | binding result [7]: binds

B8: G10xA1 (antibody, V domains shown)
VH: EVQLVESGGGLVQPGESLRLSCKASGFTFPNQAMTWVRQAPGKGLEWIGVIASNADTYYASWAKGRFTISRDNSKNTLYLQMNSPRAEDTAVYYCARHPGSAGYGYALYYAMDPWGQGTLVTVSS
VL: B1 VL
fold improved affinity compared to LxC1-G10 [8]: > 20 fold | fold improved affinity compared to LxC1-G10 [9]: 1.2 fold

B9: SEQ ID NO 16 (antibody, V domains shown)
VH: B1 VH
VL: B3 VL with P28D, I29V, H30K, H53S, K55G, M56E, I93V, A95S, L96I, K97F
notes: As m4
binding result [3]: binds | binding result [4]: binds | binding result [5]: binds | binding result [6]: binds | binding result [7]: binds
